Experiments:
[1] = tested on: HeLa Tet3G cells; assay: Cell proliferation assays: rescue of the proliferation defect induced by respiratory chain inhibitors (nuclei counting); format: cell-based, human; conditions: for rescue of piericidin induced proliferation defect by supplementation: HeLa Tet3G Luciferase cells, compound added to medium, 3 days
Experimental: Five hundred HeLa Tet3G NDI1, Luciferase, LbNOX or mitoLbNOX cells were seeded in 200 μl of DMEM (DMEM (US Biological, D9800), 3.7 g/L NaHCO3, 10% dialyzed FBS (Life Technologies, 26400-044)) per well in a black 96-well plate with clear bottom (Corning, 3904). Twenty four hours after seeding, media was exchanged to DMEM without pyruvate (DMEM (US Biological, D9802), 15.9 mg/L phenol red, 3.7 g/L NaHCO3, 10% dialyzed FBS (Life Technologies, 26400-044))±10 μg/ml chloramphenicol±30 ng/ml ethidium bromide±1 mM pyruvate±300 ng/ml doxycycline. After 0, 2, 3, 4, 5 and 6 days, media was aspirated and cells were fixed by adding 100 μl of 4% paraformaldehyde in PBS and incubating at room temperature for at least 30 min. Paraformaldehyde solution was aspirated and cells were stained with 200 μl of 1 μg/ml Hoechst 33345 in PBS. Plates were covered with sealing aluminum foil and stored at 4° C. before counting cells in each well with Molecular Dynamics IMAGEXPRESS® Ultra (see “Nuclei counting using Molecular Devices IMAGEXPRESS® Ultra,” below).
One thousand HeLa Tet3G NDI1, Luciferase, LbNOX or mitoLbNOX cells were seeded in 200 μl of DMEM (DMEM (US Biological, D9800), 3.7 g/L NaHCO3, 10% dialyzed FBS (Life Technologies, 26400-044)) per well in a black 96-well plate with clear bottom (Corning, 3904). Twenty four hours after seeding, 10 μl of 6 μg/ml doxycycline (300 ng/ml final concentration) or water was added to each well. Twenty four hours after addition of doxycycline, media was exchanged to DMEM without pyruvate (DMEM (US Biological, D9802), 15.9 mg/L phenol red, 3.7 g/L NaHCO3, 10% dialyzed FBS (Life Technologies, 26400-044)), ±1 μM piericidin, ±1 μM antimycin, ±1 mM pyruvate and ±300 ng/ml doxycycline. After 0, 1, 2, 3 and 4 days, media was aspirated and cells were fixed by adding 100 μl of 4% paraformaldehyde in PBS and incubating at room temperature for at least 30 min. Paraformaldehyde solution was aspirated and cells were stained with 200 μl of 1 μg/ml Hoechst 33345. Plates were covered with sealing aluminum foil and stored at 4° C. before counting cells in each well with Molecular Dynamics IMAGEXPRESS® Ultra (see “Nuclei counting using Molecular Devices IMAGEXPRESS® Ultra,” below).
Two thousand HeLa Tet3G Luciferase cells were seeded in 200 μl of DMEM (DMEM (US Biological, D9800), 3.7 g/L NaHCO3, 10% dialyzed FBS (Life Technologies, 26400-044)) per well in a black 96-well plate with clear bottom (Corning, 3904). Twenty four hours after seeding, media was exchanged to DMEM without pyruvate (DMEM (US Biological, D9802), 15.9 mg/L phenol red, 3.7 g/L NaHCO3, 10% dialyzed FBS (Life Technologies, 26400-044))±1 μM piericidin, ±indicated concentrations of pyruvate, lactate, malate, oxaloacetate, nicotinamide mononucleotide ([…]) or PJ34. After 3 days, media was aspirated and cells were fixed by adding 100 μl of 4% paraformaldehyde in PBS and incubating at room temperature for at least 30 min. Paraformaldehyde solution was aspirated and cells were stained with 200 μl of 1 μg/ml Hoechst 33345. Plates were covered with sealing aluminum foil and stored at 4° C. before counting cells in each well with Molecular Dynamics IMAGEXPRESS® Ultra (see “Nuclei counting using Molecular Devices IMAGEXPRESS® Ultra,” below).
Images of 96-well plates with fixed cells stained with Hoechst 33345 were collected using Molecular Devices IMAGEXPRESS® Micro XLS. Four images were taken to cover the whole well. Images were analyzed and nuclei number per well was counted using CellProfiler 2.0 image analysis software (Carpenter, et al., Genome Biol., 7:R100, 2006; and Kamentsky, et al., Bioinformatics, 27:1179, 2011). […]

[2] = tested on: HeLa Tet3G cells; assay: Glucose concentration-dependent cell survival; format: cell-based, human; conditions: 1 μM piericidin, 24 hours
Experimental: Images of 96-well plates with fixed cells stained with Hoechst 33345 were collected using Molecular Devices IMAGEXPRESS® Micro XLS. Four images were taken to cover the whole well. Images were analyzed and nuclei number per well was counted using CellProfiler 2.0 image analysis software (Carpenter, et al., Genome Biol., 7:R100, 2006; and Kamentsky, et al., Bioinformatics, 27:1179, 2011).
Ten thousand HeLa Tet3G NDI1, Luciferase, LbNOX or mitoLbNOX cells were seeded in 200 μl of DMEM (DMEM (US Biological, D9800), 3.7 g/L NaHCO3, 10% dialyzed FBS (Life Technologies, 26400-044)) per well of a black 96-well plate with clear bottom (Corning, 3904). Twenty four hours after seeding, 10 μl of 6 μg/ml doxycycline (300 ng/ml final concentration) or water was added to each well. Twenty four hours after addition of doxycycline, media was exchanged to DMEM (DMEM (US Biological, D9800), 3.7 g/L NaHCO3, 10% dialyzed FBS (Life Technologies, 26400-044))±300 ng/ml doxycycline. […] After 24 hours, media was aspirated and cells were fixed by adding 100 μl of 4% paraformaldehyde in PBS and incubating at room temperature for at least 30 min. Paraformaldehyde solution was aspirated and cells were stained with 200 μl of 1 μg/ml Hoechst 33345. Plates were covered with sealing aluminum foil and stored at 4° C. before counting cells in each well with Molecular Dynamics IMAGEXPRESS® Ultra (see “Nuclei counting using Molecular Devices IMAGEXPRESS® Ultra,” above).

In the case of `CN(C)CC(=O)Nc1ccc2[nH]c(=O)c3ccccc3c2c1` [PJ34, reference compound], the “rescue of piericidin induced proliferation defect by supplementation” value (“rescue … by supplementation” below) ([1]; 1 μM piericidin) is reported as “did not rescue”.

For `CC(O)C(=O)O` (stereo not drawn) [lactate, reference compound], the “rescue … by supplementation” value ([1]; 1 μM piericidin) was “do not”.

With `NC(=O)c1ccc[n+]([C@@H]2O[C@H](COP(=O)([O-])O)[C@@H](O)[C@H]2O)c1` [PMN, nicotinamide mononucleotide, reference compound] the “rescue … by supplementation” value ([1]; 1 μM piericidin) was “did not rescue”.

In the case of `O=C(O)CC(O)C(=O)O` (stereo not drawn) [malate, reference compound], the “rescue … by supplementation” value ([1]; 1 μM piericidin) is reported as “do not”.

B1: Ndi1: yeast (S. cerevisiae) NADH dehydrogenase Ndi1 protein, positive control (protein, UniProt P32340 27-513, looked up)
Rotenone-insensitive …: STGVENSGAGPTSFKTMKVIDPQHSDKPNVLILGSGWGAISFLKHIDTKKYNVSIISPRSYFLFTPLLPSAPVGTVDEKSIIEPIVNFALKKKGNVTYYEAEATSINPDRNTVTIKSLSAVSQLYQPENHLGLHQAEPAEIKYDYLISAVGAEPNTFGIPGVTDYGHFLKEIPNSLEIRRTFAANLEKANLLPKGDPERRRLLSIVVVGGGPTGVEAAGELQDYVHQDLRKFLPALAEEVQIHLVEALPIVLNMFEKKLSSYAQSHLENTSIKVHLRTAVAKVEEKQLLAKTKHEDGKITEETIPYGTLIWATGNKARPVITDLFKKIPEQNSSKRGLAVNDFLQVKGSNNIFAIGDNAFAGLPPTAQVAHQEAEYLAKNFDKMAQIPNFQKNLSSRKDKIDLLFEENNFKPFKYNDLGALAYLGSERAIATIRSGKRTFYTGGGLMTFYLWRILYLSMILSARSRLKVFFDWIKLAFFKRDFFKGL
For B1, the “rescue of proliferation defect caused by ethidium bromide” value ([1]; 30 ng/ml ethidium bromide, no pyruvate, doxycycline-inducible expression) was “not”, the “rescue of proliferation defect caused by antimycin” value ([1]; 1 μM antimycin, no pyruvate, doxycycline-inducible expression) was “not” and the “rescue of proliferation defect caused by piericidin” value ([1]; 1 μM piericidin, no pyruvate, doxycycline-inducible expression) was “rescued”. For the same molecule, the “rescue of proliferation defect caused by chloramphenicol” value ([1]; 10 μg/ml chloramphenicol, no pyruvate, doxycycline-inducible expression) was “not” and the “effect on decrease in cell number (cell survival) at low glucose concentrations in the presence of piericidin” value [2] was “rescued”.

Source: US11866736B2, “Protein prostheses for mitochondrial diseases or conditions” (The General Hospital Corporation, priority 2015, dated 2024)
